Here are results for 5 molecules from patent US20200392227A1 (LYVGEN BIOPHARMA, published 2020).

The target in assay [1] is T1, human FcγRI expressed on CHO cells (human, UniProt P12314 16-374).
T1 construct: whole, on cells
Nature of the assay: FACS, CHO cells expressing FcγRI. The method, then:
For FACS analysis of the IgG mutants' binding to different FcγRs, FcγR overexpressing CHO cells were harvested using trypsin-EDTA and were suspended in cold staining buffer (3% BSA in PBS). Test IgG mutants, which were diluted in staining buffer, were added into the cells. The mixture was incubated 4° C. for 2 hours, and then washed twice with cold staining buffer and re-suspended in PE-labeled anti-human IgG followed by incubation at 4° C. for 2 hours. The mixture was washed twice with staining buffer and re-suspended in 2% PFA in PBS for FACS.
(A flow cytometer gives signals particle by particle.)

Assay [2] has as its target T2, human FcγRIIC expressed on CHO cells (human, UniProt P31995 43-323).
T2 construct: whole, on cells
T2 sequence (looked up): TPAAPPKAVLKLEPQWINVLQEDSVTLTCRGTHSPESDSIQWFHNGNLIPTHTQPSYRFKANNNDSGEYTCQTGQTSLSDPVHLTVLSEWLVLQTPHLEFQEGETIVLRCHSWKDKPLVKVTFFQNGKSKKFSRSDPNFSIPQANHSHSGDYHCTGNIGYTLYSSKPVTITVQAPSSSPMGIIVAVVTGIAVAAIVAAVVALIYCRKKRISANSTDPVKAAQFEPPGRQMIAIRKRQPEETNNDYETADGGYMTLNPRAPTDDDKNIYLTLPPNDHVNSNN
Nature of the assay: FACS, CHO cells expressing FcγRIIC.

In assay [3] the target is T3, human FcRI protein (MednaBio, E1031) (human, UniProt P12314 16-288, limits assumed).
T3 construct: Bought; loaded on anti-penta-HIS biosensors; also called FcγRI
T3 sequence (P12314 16-288 limits assumed): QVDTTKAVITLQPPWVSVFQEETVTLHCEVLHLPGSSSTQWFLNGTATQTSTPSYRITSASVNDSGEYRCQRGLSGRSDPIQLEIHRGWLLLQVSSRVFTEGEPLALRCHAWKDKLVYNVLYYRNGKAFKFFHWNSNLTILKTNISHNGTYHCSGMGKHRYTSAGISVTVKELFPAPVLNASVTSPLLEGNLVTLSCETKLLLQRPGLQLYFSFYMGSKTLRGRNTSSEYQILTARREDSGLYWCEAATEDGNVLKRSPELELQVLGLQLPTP
Put plainly: BLI. An outline of the steps:
(§1)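 Binding was measured by biolayer interferometry on an Octet Red96 System. Commercial human Fc receptor proteins were loaded at 20 μg/mL onto anti-penta-HIS biosensors, which were then dipped into an 8-point 1:3 dilution series of test IgG starting at 300 nM in PBS with 0.1% BSA and 0.02% Tween-20, at pH 7.2 for Fcγ receptors and pH 6 for FcRn. Kd, kon and koff were obtained by global fitting, with data fitted to a 1:1 binding model.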

For assay [4], the target named is T4, human FcRIIB/C protein (MednaBio, E1034) (human, UniProt P31994 43-217, limits assumed).
T4 construct: Bought as FcRIIB/C; also called FcγRIIB; CD32B
T4 sequence (looked up): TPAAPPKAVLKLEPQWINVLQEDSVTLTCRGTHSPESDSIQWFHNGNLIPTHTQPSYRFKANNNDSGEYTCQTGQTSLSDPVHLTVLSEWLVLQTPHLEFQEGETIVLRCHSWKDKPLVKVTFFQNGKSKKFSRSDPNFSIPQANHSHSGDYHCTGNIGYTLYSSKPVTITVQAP
Put plainly: BLI. An outline of the steps:
as §1
On the technique in general: Biolayer interferometry detects binding as a change in optical thickness at a sensor tip.

For assay [5], the target named is T5, human FcRn protein (MednaBio, E1032) (human, UniProt P55899 24-297; P61769 21-119).
T5 construct: Bought; assays at pH 6
T5 sequence (P55899 24-297 limits assumed, form in doubt, chain 1 of 2): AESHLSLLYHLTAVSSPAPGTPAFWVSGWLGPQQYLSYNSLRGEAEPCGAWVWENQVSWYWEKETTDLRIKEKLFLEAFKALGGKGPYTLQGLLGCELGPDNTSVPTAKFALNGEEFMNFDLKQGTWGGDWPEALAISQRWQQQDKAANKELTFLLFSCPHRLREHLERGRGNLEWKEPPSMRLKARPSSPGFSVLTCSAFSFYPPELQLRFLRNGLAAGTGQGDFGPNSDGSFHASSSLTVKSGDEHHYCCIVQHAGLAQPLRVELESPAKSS
T5 sequence (P61769 21-119 limits assumed, form in doubt, chain 2 of 2): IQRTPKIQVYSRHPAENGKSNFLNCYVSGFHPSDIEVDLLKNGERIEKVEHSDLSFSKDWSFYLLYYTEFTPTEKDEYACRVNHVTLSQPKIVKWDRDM
Nature of the assay: BLI. The gist of the method:
as §1

Assay [6] addresses T6, human FcRIIA protein (MednaBio, E1033) (human, UniProt P12318 34-218, limits assumed).
T6 construct: Bought; also called FcγRIIA
T6 sequence (looked up): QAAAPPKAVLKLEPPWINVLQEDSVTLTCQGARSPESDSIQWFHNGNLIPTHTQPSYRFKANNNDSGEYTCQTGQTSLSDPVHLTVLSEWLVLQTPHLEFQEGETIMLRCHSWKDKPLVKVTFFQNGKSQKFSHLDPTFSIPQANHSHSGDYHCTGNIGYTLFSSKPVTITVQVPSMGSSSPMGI
Put plainly: BLI. An outline of the steps: as §1

The target of assay [7] is T7, human FcRIIIA-V158 protein (MednaBio, E1035) (human, UniProt P08637 17-208).
T7 construct: Bought; also called FcγRIIIA(V); FcgRIIIA(V)
T7 sequence (P08637 17-208 F176V): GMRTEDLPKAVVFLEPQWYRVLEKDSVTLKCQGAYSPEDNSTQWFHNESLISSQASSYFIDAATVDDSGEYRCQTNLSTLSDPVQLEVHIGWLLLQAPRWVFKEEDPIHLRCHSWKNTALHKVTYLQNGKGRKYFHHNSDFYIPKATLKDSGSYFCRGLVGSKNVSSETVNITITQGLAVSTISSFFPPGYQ
Nature of the assay: BLI. An outline of the steps: as §1

Assay [8] has as its target T8, human FcRIIIB protein (MednaBio, E1037) (human, UniProt O75015 17-200).
T8 construct: Bought; also called FcγRIIIB; FcgRIIIB
Put plainly: BLI. The gist of the method: as §1

Assay [9] has as its target T9, human FcRIIIA-F158 protein (MednaBio, E1036) (human, UniProt P08637 17-208).
T9 construct: Bought; also called FcγRIIIA(F)
Put plainly: BLI. An outline of the steps:
as §1

In assay [10] the target is T3, human FcRI protein (MednaBio, E1031). Put plainly: BLI. The method, then: (§2) These IgG mutants were tested for binding to a panel of human Fc receptors (FcRs), including FcRn, using the Octet Red96 System (ForteBio, Model #Red96). Human FcR proteins were purchased commercially (FcRn, MednaBio, E1032; FcRI, MednaBio, E1031; FcRIIA, MednaBio, E1033; FcRIIB/C, MednaBio, E1034; FcRIIIA-F158, MednaBio, E1036; FcRIIIA-V158, MednaBio, E1035; FcRIIIB, MednaBio, E1037). All Fey receptor assays were performed at pH 7.2; all FcRn assays were performed at pH 6. The Fey receptors were loaded onto anti-penta-HIS1K (ForteBio, Cat #18-5122) biosensors at a concentration of 20 μg/mL. The loaded biosensors was then be dipped into an 8-point 1:3 dilution series of the test IgG molecules (including controls and the mutants described herein) in PBS with 0.1% BSA, 0.02% Tween-20 (pH 7.2) at a starting concentration of 300 nM. Kinetic analysis was performed using a 1:1 binding model and global fitting.
This is another data set of the same source.

Assay [11] concerns the target T4, human FcRIIB/C protein (MednaBio, E1034). Put plainly: BLI. The method, then:
as §2
The source holds these as a separate data set.

For assay [12], the target named is T5, human FcRn protein (MednaBio, E1032). Nature of the assay: BLI. How it is done: as §2
The source holds these as a separate data set.

The target in assay [13] is T6, human FcRIIA protein (MednaBio, E1033). Put plainly: BLI. The method, then:
as §2
The source holds these as a separate data set.

Assay [14] deals with T7, human FcRIIIA-V158 protein (MednaBio, …). Nature of the assay: BLI. The method, then:
as §2
The source holds these as a separate data set.

Assay [15] has as its target T8, human FcRIIIB protein (MednaBio, E1037). Nature of the assay: BLI. How it is done: as §2
The source holds these as a separate data set.

In assay [16] the target is T9, human FcRIIIA-F158 protein (MednaBio, …). Nature of the assay: BLI. How it is done:
as §2
The source holds these as a separate data set.

Substitutions are numbered along the chain they refer to. Where two headings read alike, the source gives them in different places.

T9 sequence (P08637 17-208 limits assumed): as the sequence (P08637 17-208 F176V) above, with V160F counted along it
T8 sequence (O75015 17-200 limits assumed): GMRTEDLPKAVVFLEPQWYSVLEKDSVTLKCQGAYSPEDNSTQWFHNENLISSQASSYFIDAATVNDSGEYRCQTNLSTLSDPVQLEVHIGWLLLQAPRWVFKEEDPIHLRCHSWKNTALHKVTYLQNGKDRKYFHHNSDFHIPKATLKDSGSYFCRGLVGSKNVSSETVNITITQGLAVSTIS
T1 sequence (P12314 16-374): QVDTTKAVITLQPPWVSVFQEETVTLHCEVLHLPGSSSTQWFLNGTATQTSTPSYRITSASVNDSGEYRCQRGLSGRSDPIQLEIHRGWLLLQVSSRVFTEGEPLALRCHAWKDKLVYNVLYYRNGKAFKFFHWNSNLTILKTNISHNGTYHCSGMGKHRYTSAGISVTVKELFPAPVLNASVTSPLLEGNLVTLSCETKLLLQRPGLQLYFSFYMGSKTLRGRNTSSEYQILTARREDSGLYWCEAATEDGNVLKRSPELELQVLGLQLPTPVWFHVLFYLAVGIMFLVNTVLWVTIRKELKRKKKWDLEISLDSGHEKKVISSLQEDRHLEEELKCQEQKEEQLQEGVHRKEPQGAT

B1: anti-CD137 IgG2 with Fc variant G2m7 (antibody)
heavy: EVQLVQSGAEVKKPGESLRISCKGSGYSFSTYWISWVRQMPGKGLEWMGKIYPGDSYTNYSPSFQGQVTISADKSISTAYLQWSSLKASDTAMYYCARGYGIFDYWGQGTLVTVSSASTKGPSVFPLAPCSRSTSESTAALGCLVKDYFPEPVTVSWNSGALTSGVHTFPAVLQSSGLYSLSSVVTVPSSNFGTQTYTCNVDHKPSNTKVDKTVERKCCVECPPCPAPPVAGPSVFLFPPKPKDTLMISRTPEVTCVVVDVEHEDPEVQFNWYVDGVEVHNAKTKPREEQFNSTFRVVSVLTVVHQDWLNGKEYKCKVSNKGLPAPIEKTISKTKGQPREPQVYTLPPSREEMTKNQVSLTCLVKGFYPSDIAVEWESNGQPENNYKTTPPMLDSDGSFFLYSKLTVDKSRWQQGNVFSCSVMHEALHNHYTQKSLSLSPGK
light: SYELTQPPSVSVSPGQTASITCSGDNIGDQYAHWYQQKPGQSPVLVIYQDKNRPSGIPERFSGSNSGNTATLTISGTQAMDEADYYCATYTGFGSLAVFGGGTKLTVLGQPKAAPSVTLFPPSSEELQANKATLVCLISDFYPGAVTVAWKADSSPVKAGVETTTPSKQSNNKYAASSYLSLTPEQWKSHRSYSCQVTHEGSTVEKTVAPTECS
notes: copies: 2 + 2
On to B1, for which the binding result in [1] is recorded as “no binding (tested: 10 ug/ml)”; in [2] it was “binds”; in assay [3], “no binding (tested: 300 nM)”; in assay [7], “no binding (tested: 300 nM)”; in [8] it was “no binding (tested: 300 nM)”; in assay [9], “no binding (tested: 300 nM)”. Further, the dissociation constant Kd (commonly the equilibrium constant for the complex coming apart) in [4] is 170 nM; in [5], 5.7 nM; in [6] it was 120 nM. For the same molecule, the koff (commonly a measure of how fast the partners let go of each other) came out at 0.052 s⁻¹ in [4], 0.0052 s⁻¹ in assay [5] and 0.028 s⁻¹ in assay [6]. Further, the kon (in general, a measure of how fast the partners come together) is 310000 M⁻¹ s⁻¹ in assay [4], 910000 M⁻¹ s⁻¹ in assay [5] and 230000 M⁻¹ s⁻¹ in assay [6].

B2: anti-CD137 IgG2 with Fc variant G2m8 (antibody)
heavy: B1 heavy with E262S, L323F
light: B1 light
notes: copies: 2 + 2
In the case of B2, the binding result is recorded as “no binding (tested: 10 ug/ml)” in assay [1]; “no binding (tested: 300 nM)” in [3]; “no binding (tested: 300 nM)” in [7]; “no binding (tested: 300 nM)” in assay [8]; “no binding (tested: 300 nM)” in [9]. In addition, the results for the Kd in assay [4], in assay [5] and in assay [6] were 500 nM, 6.3 nM and 93 nM, respectively. Besides, the koff in [4] came to 0.26 s⁻¹; in [5], 0.0053 s⁻¹; in assay [6], 0.092 s⁻¹. Also, the on-rate (kon) stood at 510000 M⁻¹ s⁻¹ in [4], 850000 M⁻¹ s⁻¹ in [5] and 990000 M⁻¹ s⁻¹ in assay [6].

B3: anti-CD137 IgG4 with Fc variant G4m10 (antibody)
heavy: EVQLVQSGAEVKKPGESLRISCKGSGYSFSTYWISWVRQMPGKGLEWMGKIYPGDSYTNYSPSFQGQVTISADKSISTAYLQWSSLKASDTAMYYCARGYGIFDYWGQGTLVTVSSASTKGPSVFPLAPCSRSTSESTAALGCLVKDYFPEPVTVSWNSGALTSGVHTFPAVLQSSGLYSLSSVVTVPSSSLGTKTYTCNVDHKPSNTKVDKRVESKYGPPCPPCPAPEVSSVFLFPPKPKDTLMISRTPEVTCVVVDVSQEDPEVQFNWYVDGVEVHNAKTKPREEQFNSTYRVVSVLTVLHQDWLNGKEYKCKVSNKGFPSSIEKTISKAKGQPREPQVYTLPPSQEEMTKNQVSLTCLVKGFYPSDIAVEWESNGQPENNYKTTPPVLDSDGSFFLYSRLTVDKSRWQEGNVFSCSVMHEALHNHYTQKSLSLSLGK
light: B1 light
notes: copies: 2 + 2
On to B3, for which the binding result in [10] is listed as “no binding (tested: 300 nM)”; in assay [11] it was “no binding (tested: 300 nM)”; in [14], “no binding (tested: 300 nM)”; in assay [15], “no binding (tested: 300 nM)”; in assay [16] it was “no binding (tested: 300 nM)”; in assay [2] it was “no binding (tested: 10 ug/ml)”. Moreover, the figures for the Kd in assay [12] and in assay [13] were 11 nM and 83 nM, respectively. In addition, the results for the off-rate (koff) in assay [12] and in assay [13] were 0.0055 s⁻¹ and 0.037 s⁻¹, respectively. The values for the kon in assay [12] and in [13] were 510000 M⁻¹ s⁻¹ and 450000 M⁻¹ s⁻¹, respectively.

B4: anti-CD137 IgG4 with Fc variant G4m1 (antibody)
heavy: B3 heavy with V230F, S231L, F321L
light: B1 light
notes: copies: 2 + 2
In the case of B4, the Kd in assay [10] worked out at 130 nM; in assay [11], 250 nM; in [12], 19 nM; in assay [13] it was 450 nM. Moreover, the koff in assay [10] worked out at 0.097 s⁻¹; in assay [11] it was 0.11 s⁻¹; in assay [12], 0.013 s⁻¹; in assay [13], 0.11 s⁻¹. Further, the kon worked out at 740000 M⁻¹ s⁻¹ in assay [10], 420000 M⁻¹ s⁻¹ in [11], 690000 M⁻¹ s⁻¹ in [12] and 240000 M⁻¹ s⁻¹ in [13]. Besides, the binding result in assay [14], in [15] and in [16] was “no binding (tested: 300 nM)” in each case.

B5: anti-CD137 IgG2 with Fc variant G2m9 (antibody)
heavy: B1 heavy with L323F
light: B1 light
notes: copies: 2 + 2
For B5, the binding result in [2] is “binds”; in [3] it was “no binding (tested: 300 nM)”; in assay [7] it was “no binding (tested: 300 nM)”; in [8], “no binding (tested: 300 nM)”; in assay [9] it was “no binding (tested: 300 nM)”. Moreover, the Kd in assay [4] turned out to be 52 nM; in assay [5] it was 22 nM; in assay [6], 280 nM. The koff was 0.005 s⁻¹ in assay [4], 0.0058 s⁻¹ in [5] and 0.03 s⁻¹ in assay [6]. Further, the kon worked out at 97000 M⁻¹ s⁻¹ in assay [4], 270000 M⁻¹ s⁻¹ in assay [5] and 110000 M⁻¹ s⁻¹ in assay [6].
